Data taken from US8022177B2, “Peptides and calcium regulation in mammalian cells” (The Board of Trustees of the University of Illinois, priority 2005, dated 2011).

B1: γ7: rat calcium channel γ7 subunit (AF361345), SEQ ID NO:50 (protein, listed as Rattus norvegicus)
chain: MSHCSSRALTLLSSVFGACGLLLVGIAVSTDYWLYMEEGTVLPQNQTTEVKMALHAGLWRVCFFAGREKGRCVASEYFLEPEINLVTENTENILKTVRTATPFPMVSLFLVFTAFVISNIGHIRPQRTILAFVSGIFFILSGLSLVVGLVLYISSINDEVMNRPSSSEQYFHYRYGWSFAFAASSFLLKEGAGVMSVYLFTKRYAEEEMYRPHPAFYRPRLSDCSDYSGQFLQPEAWRRGRSPSDISSDVSIQMTQNYPPAIKYPDHLHISTSPC
B2: γ6 L43S: γ6 with leucine at position 43 substituted with serine (protein, UniProt Q9BXT2 1-260, looked up, variant L43S)
Voltage-dependent calcium …: MMWSNFFLQEENRRRGAAGRRRAHGQGRSGLTPEREGKVKLASLLAAVGATLAVLSVGTEFWVELNTYKANGSAVCEAAHLGLWKACTKRLWQADVPVDRDTCGPAELPGEANCTYFKFFTTGENARIFQRTTKKEVNLAAAVIAVLGLAVMALGCLCIIMVLSKGAEFLLRVGAVCFGLSGLLLLVSLEVFRHSVRALLQRVSPEPPPAPRLTYEYSWSLGCGVGAGLILLLGAGCFLLLTLPSWPWGSLCPKRGHRAT

What was measured:
[1] = target: T1, Cav3.1 (Homo sapiens, UniProt O43497); assay: Whole-cell patch clamp of Cav3.1 current in Cav3.1-HEK cells transfected with γ6, γ4, their first transmembrane domains or point mutants (Example 3); type: cell-based; parameters: Activation K / Inactivation K: unit not given here; settings: for Peak current density: Cav3.1-HEK cells, control 48.43±2.62; for Calcium current density (unit not given): Example 2, control −48.39+/−2.6, fusion series control −46.9+/−5; for Activation K / Activation V½ / Deactivation τ @−100 mV / Inactivation K / Inactivation V½ / Inactivation τ @−20 mV / Time to peak @−25 mV / Activation V peak: Table 3.2; for Normalized Current Density: relative to vector control (100.0%), Table 3.3
T1 construct: expressed in transfected cells; host or cells: HEK-293, stably transfected
T1 sequence (O43497 whole entry, the tested form may be a part): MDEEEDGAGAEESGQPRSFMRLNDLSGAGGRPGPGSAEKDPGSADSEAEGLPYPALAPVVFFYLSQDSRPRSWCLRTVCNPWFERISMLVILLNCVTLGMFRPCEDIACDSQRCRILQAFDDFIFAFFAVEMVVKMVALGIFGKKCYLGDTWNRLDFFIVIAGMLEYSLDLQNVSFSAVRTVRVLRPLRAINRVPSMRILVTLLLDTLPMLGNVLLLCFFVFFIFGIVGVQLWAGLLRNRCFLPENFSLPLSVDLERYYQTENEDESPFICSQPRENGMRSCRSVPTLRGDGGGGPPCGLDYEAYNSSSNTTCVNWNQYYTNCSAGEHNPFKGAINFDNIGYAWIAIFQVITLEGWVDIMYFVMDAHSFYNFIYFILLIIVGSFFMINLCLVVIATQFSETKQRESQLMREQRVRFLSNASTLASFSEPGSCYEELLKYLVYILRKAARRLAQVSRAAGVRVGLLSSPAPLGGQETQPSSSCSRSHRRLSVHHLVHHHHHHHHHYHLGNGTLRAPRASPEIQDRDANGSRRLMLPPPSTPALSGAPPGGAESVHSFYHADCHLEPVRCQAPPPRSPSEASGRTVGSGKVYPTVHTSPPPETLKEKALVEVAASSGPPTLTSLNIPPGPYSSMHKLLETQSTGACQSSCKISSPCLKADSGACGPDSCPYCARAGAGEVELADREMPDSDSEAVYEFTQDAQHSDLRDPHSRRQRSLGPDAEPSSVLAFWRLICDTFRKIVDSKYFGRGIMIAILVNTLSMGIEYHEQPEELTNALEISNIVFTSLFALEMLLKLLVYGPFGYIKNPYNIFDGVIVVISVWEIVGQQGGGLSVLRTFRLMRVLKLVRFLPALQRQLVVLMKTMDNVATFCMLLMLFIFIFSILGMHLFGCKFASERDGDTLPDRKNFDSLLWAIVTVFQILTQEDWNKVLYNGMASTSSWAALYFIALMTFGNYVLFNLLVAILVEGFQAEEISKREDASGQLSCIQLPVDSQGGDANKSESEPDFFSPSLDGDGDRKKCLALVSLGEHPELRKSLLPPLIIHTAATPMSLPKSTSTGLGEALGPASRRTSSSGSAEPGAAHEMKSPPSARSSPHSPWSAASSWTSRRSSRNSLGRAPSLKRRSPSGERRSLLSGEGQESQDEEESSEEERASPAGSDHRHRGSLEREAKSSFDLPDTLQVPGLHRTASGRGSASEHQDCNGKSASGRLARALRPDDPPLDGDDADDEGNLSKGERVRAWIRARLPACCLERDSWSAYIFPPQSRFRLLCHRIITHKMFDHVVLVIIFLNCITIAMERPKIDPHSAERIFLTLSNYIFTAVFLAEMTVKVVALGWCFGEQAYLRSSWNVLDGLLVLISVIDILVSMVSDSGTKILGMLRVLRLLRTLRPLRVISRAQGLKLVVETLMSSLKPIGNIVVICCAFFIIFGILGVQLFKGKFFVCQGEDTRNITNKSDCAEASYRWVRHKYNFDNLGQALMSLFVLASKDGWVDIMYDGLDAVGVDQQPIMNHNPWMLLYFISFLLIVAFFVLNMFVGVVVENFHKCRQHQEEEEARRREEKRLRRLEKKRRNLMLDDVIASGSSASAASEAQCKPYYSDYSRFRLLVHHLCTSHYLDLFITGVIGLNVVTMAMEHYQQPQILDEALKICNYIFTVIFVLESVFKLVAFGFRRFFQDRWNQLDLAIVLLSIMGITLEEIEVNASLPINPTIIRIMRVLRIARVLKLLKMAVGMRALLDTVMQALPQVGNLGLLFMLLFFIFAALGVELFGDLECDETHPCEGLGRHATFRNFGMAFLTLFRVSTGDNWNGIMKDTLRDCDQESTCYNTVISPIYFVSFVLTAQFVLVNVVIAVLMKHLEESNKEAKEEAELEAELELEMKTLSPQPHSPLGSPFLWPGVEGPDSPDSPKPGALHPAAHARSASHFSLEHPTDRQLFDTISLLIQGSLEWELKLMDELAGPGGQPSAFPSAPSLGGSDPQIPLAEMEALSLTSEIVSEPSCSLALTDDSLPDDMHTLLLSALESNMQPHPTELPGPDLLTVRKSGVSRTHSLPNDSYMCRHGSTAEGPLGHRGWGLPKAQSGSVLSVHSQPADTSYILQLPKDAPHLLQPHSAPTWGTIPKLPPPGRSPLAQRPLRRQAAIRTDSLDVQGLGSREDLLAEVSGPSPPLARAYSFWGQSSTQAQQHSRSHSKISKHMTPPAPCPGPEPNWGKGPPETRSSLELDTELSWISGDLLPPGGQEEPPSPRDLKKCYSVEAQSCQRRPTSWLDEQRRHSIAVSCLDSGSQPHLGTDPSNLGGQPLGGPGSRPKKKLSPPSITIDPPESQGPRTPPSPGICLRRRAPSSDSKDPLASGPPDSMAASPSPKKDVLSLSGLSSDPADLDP
Protocol: Transfection. HEK-293 cells stably transfected with the Cav3.1 α1 subunit were transiently transfected with vectors containing GFP and γ subunits cDNA when the cultures reached 50% confluency. Lipofectamine 2000 reagent (Invitrogen) was used following manufacturer's protocol.
Electrophysiology. Whole cell Ca2+ currents were recorded at room temperature using an Axon Instruments Axopatch-1D amplifier, a Digidata 1200 interface and pClamp8.0 software about 48 hours after transfection. Cell capacitance was typically around 10 pF, but ranged from 5-40 pF. Recording micropipettes were made from borosilicate glass (2-3 Mohms tip resistance), and filled with solution contained (in mM) 130 NaCl, 10 EGTA, 2 MgCl2, 1 CaCl2, 10 HEPES, 3 Tris-ATP, and 0.3 Li2GTP or 0.3 Tris-GTP. Tyrode's solution was used as the bath solution. It contained (in mM) 137 NaCl, 1 KCl, 1 MgCl2, 0.33 NaH2PO4, 2 CaCl2, 10 HEPES. Both solutions were adjusted to pH 7.4 with NaOH and 280 mOsm with sucrose.
We determined the biophysical characteristics of Cav3.1 currents in transfected HEK-293 cells and effects of the first transmembrane domain of γ4 and γ6 on these properties. Test parameters were optimized for studying Cav3.1 current. The time constant (τ) of deactivation (τdeac) was obtained by single exponential fitting of tail currents. For Cav3.1 currents, the cells were clamped at a holding potential of −100 mV, then depolarized to −20 mV for 4 msec, and repolarized to various voltages from −120 mV to −60 mV at 10 mV interval for 150 msec to elicit tail currents.
The voltage dependence of activation was measured using tail currents. For Cav3.1 currents, the cells were clamped at a holding potential equal to −100 mV, and then depolarized briefly to a conditioning potential, varying from −90 mV to +60 mV, and finally clamped at −60 mV before inactivation. Using this protocol, all tail currents are elicited at the same driving force (at −60 mV), so the current amplitude accurately reflects the number of channels opened during the different conditioning potentials.
A series of conditioning prepulses of 500 msec were used to measure voltage dependence of inactivation in our experiments. Channels initially open and then reach steady-state inactivation during the 500 msec long prepulses. The membrane potential is stepped to a fixed test potential of −20 mV, where maximal peak current is elicited. Currents elicited at each test potential reflect how many channels are not in the inactivated state after a steady-state inactivation; that is, how many channels are available to open. The conditioning prepulse potentials were changed from −120 mV to 50 mV, and the test potential is fixed at −20 mV.
Data collection and analysis. To probe the structural features necessary for the function of γ subunits, we are using HEK-293 cell line stably transfected with Cav3.1 α1 subunit. These cells are then transiently transfected with vectors containing various chimeric, truncated or mutant gamma subunits. […] There is inherent variation in calcium current density in the HEK-Cav3.1 stable cell line likely due to differences in the batch used, passenger number, extent of cellular confluence, or for other unknown reasons. The averaged current density of each test group of cells was normalized to the mean current density of a parallel control group of cells plated from the same batch of cells and analyzed on the same day. A minimum of 5 cells (typically 7 to 10) from each group was used to calculate the mean behavior of test and control cells from each days recording. At least two independent transfections were performed for each test condition. Overall, averages were obtained from 21 control groups of cells that had been transfected with empty vector over several months. The data are pooled together to reduce the variance. […] The current density of the control cells over many months justified the pooling of data recorded from different batches of cells transfected with mutated γ subunits. […]

[2] = target: T1, Cav3.1; assay: Whole-cell patch clamp of Cav3.1 dependent LVA calcium current in HEK-293/Cav3.1 cells transiently transfected with γ subunits (Example 1); type: cell-based
Protocol: 2.3. Transfection. Untransfected HEK-293 cells, HEK-293 cell lines stably transfected with Cav3.1, and HL-1 cells were transiently transfected with vectors containing γ subunit, GFP, and modified CFP cDNAs using Lipofectamine 2000 reagent (InVitrogen) as per the manufacturer's recommendations. HEK-293 cells were grown to 70-80% confluence before transfection. HL-1 cells were grown to 50-75% confluence before transfection.
2.4. Electrophysiology. Whole-cell calcium currents were recorded using an Axopatch-1 D patch clamp system and Clampex 8.0 software. Pipettes were fabricated from borosilicate glass and had typical resistances of 2-4 MΩ. The pipette solution contained (in mM): 130 NaCl, 10 EGTA, 2 MgCl2, 1 CaCl2, 10 HEPES, 3 Tris-ATP, and either 0.3 Li2GTP or 0.3 Tris-GTP, adjusted to pH 7.4 with NaOH and 280 mOsm with sucrose. The bath solution contained (in mM): 137 NaCl (for HEK-293 experiments) or 120 TEACl (for HL-1 experiments), 1 KCl, 1 MgCl2, 0.33 NaH2PO4, 2 CaCl2 (for HEK-293 experiments) or 5 CaCl2 (for HL-1 experiments), 10 glucose (for HL-1 experiments only), 10 HEPES, and 30 μM TTX (for HEK-293 experiments only), adjusted to pH 7.4 with NaOH (for HEK-293 experiments) or TEAOH (for HL-1 experiments) and 280 mOsm with sucrose. NaCl was used as the major salt in the pipette solution order to eliminate any outward K+ currents.
Recordings from HEK-293 cells were made 48-96 h posttransfection, at which time expression, as measured by GFP fluorescence, peaked. HL-1 cells were used for recording 24-36 h post-transfection. Current densities in HEK-293/Cav3.1 cell experiments were normalized to control for variation in current expression in the different frozen stocks of stable cell lines used. […] HL-1 experiments were performed using a single stock of cells. All HEK-293 data are from current records in which pipette and whole-cell capacitance were about 100% compensated and series resistance was compensated to >80%. Whole-cell capacitance and series resistance were not compensated for HL-1 recordings as currents were typically <100 pA. Series resistance values were typically <10 MX, and no records were used in which the voltage error (as defined by Ver=Imax×Ra) was greater than 5 mV. The holding potential of all protocols used for HEK-293 cells was −100 mV except for steady-state inactivation protocols where the holding potential was −120 mV. The holding potential for protocols used for HL-1 cells was −90 mV. Current-voltage relationships for all HEK-293 and HL-1 cells were measured using 50 ms test depolarizations. Peak current amplitudes for activation curves were determined by fitting tail currents, elicited by stepping membrane voltage from varying test potentials to −60 mV, with the Boltzman equation. Test potential steps for activation protocols were of varied durations, corresponding to the time to peak of the elicited current. Inactivation curves were determined by fitting peak amplitudes of currents, observed in a test pulse to −20 mV, following 500 ms steps to varying potentials, with the Boltzman equation. Time to peak was determined using the current-voltage protocol described above. Inactivation time constants were determined by fitting the decay phase of currents to an exponential equation and deactivation time constants were determined by fitting the decay phase of tail currents to an exponential equation. […] Currents were recorded at 40 kHz and on-line filtered at either 5 or 10 kHz. In some cases currents were off-line filtered at 1 kHz to further reduce noise. Current/voltage relationships and tail currents were recorded from HEK cells using an on-line P/−4 subtraction procedure. Calcium currents recorded from HL-1 cells were off-line leak subtracted. The average membrane capacitance of untransfected HEK-293 cells in pilot experiments was 12.5±1.4 pF (n=8). […]

Molecule | Peak current density [1] [pA/pF] | Calcium current density (unit not given) [1] | Activation K [1] | Activation V½ [1] [mV] | Deactivation τ @−100 mV [1] [ms] | Inactivation K [1] | Inactivation V½ [1] [mV] | Inactivation τ @−20 mV [1] [ms] | Time to peak @−25 mV [1] | also measured
γ4 TM1: first transmembrane domain of γ4, SEQ ID NO:17 (LLTTAGAFAAFSLMAIAIGT) | 56.34±5.01 | −48.3+/−3 | 13.29 ± 0.70 | −29.71 ± 2.03 | 2.40 ± 0.22 | −5.92 ± 0.12 | −66.17 ± 0.83 | 25.5 ± 0.9 | 9.00 ± 0.51 | Activation V peak ([1]; listed as γ4 1stTM): −28.57 ± 0.82 mV; Activation V peak ([1]; listed as γ4 first transmembrane domain): −28.57±0.82 mV
γ6 TM1: first transmembrane domain of γ6, approximately 20 amino acids, SEQ ID NO:12 (KLGLLVAIVGATLAVLAVGT) | 38.65±2.92 | −38.6+/−2.9 | 10.85 ± 0.49 | −30.33 ± 2.32 | 2.01 ± 0.21 | −5.54 ± 0.12 | −62.43 ± 0.65 | 24.0 ± 1.3 | 11.06 ± 0.97 | Decrease of peak current density from control ([1]; TM1 series, vs blank vector): 20%; Activation V peak [1]: −26.00±1.00 mV; Activation V peak ([1]; listed as γ6 1stTM): −26.00 ± 1.00 mV
B1 | – | – | – | – | – | – | – | – | – | Effect on current kinetics or voltage dependency ([2]; HEK-293/Cav3.1): did not alter current kinetics or voltage dependency; Peak current density, % of control value ([2]; HEK-293/Cav3.1, normalized to adCGI vector control, mean±S.E.M.): 99%±8%; Effect on Cav3.1 current ([2]; HEK-293 cells): no significant effect; Activation V 0.5 ([2]; Table 2): −28.1 ± 1.2 (n = 11) mV; Activation k ([2]; Table 2): 11.1 ± 0.3 (n = 11); Deactivation tau @ −100 mV, Fast ([2]; Table 2): 1.30 ± 0.10 (n = 11) ms; Inactivation Tau @ −20 mV ([2]; Table 2): 17.2 ± 0.5 (n = 10) ms; Inactivation V 0.5 ([2]; Table 2): −68.6 ± 1.4 (n = 10) mV; Inactivation k ([2]; Table 2): 6.0 ± 0.1 (n = 10); Time to peak @ −20 mV ([2]; Table 2): 7.0 ± 0.4 (n = 11) ms; V peak ([2]; Table 2): −24.1 ± 0.9 (n = 11) mV
B2 | – | – | – | – | – | – | – | – | – | Normalized Current Density [1]: 48.2%; Normalized Current Density ([1]; listed as L43S): 48.2%±7.2%
